“Also recorded” adds a separate entry of the source.
Assays:
CTLL-2 cells [1] = conditions: 100 U/ml IL-2 every 48 hours; cell count every 24 hours
Experimental: Cells were cultured in media containing the indicated concentration of (a) theophylline and (b) tetracycline.
In the experiment shown in FIG. 19, 100 U/ml of IL-2 was fed to all cultures every 48 hours, and cell count was obtained every 24 hours by flow cytometry.

JAK-STAT pathway = assay: Western blot analysis of phosphorylated STAT5 levels; format: cell-based, mouse; conditions: CffLuc cell line lacking the ribozyme switch system; 500 μM theophylline
Experimental: Additional assays on a clonal cell line harboring three copies of L2bulge9 (clone 1264-48) were performed to verify the mechanism of growth regulation and examine the dynamic behavior of the regulatory system to variations in theophylline availability. Cell cultures were grown for one week in the presence of 500 μM theophylline and continued for a second week in the absence of theophylline. Theophylline was reintroduced for another four days at the end of the study. […] CD19 levels returned to basal levels within 48 hours of theophylline removal from the culture. The theophylline-responsive increase in CD19 expression was repeated upon reintroduction of theophylline to culture media. IL-15 expression patterns were verified at the transcript level through quantitative RT-PCR (Example 21, FIG. 8). […]
Lysate samples were thawed on ice and a standard Bradford assay using Protein Assay Dye (Bio-Rad) was performed with a BSA standard to determine protein concentrations. […] Membranes stained for […] and p-STAT5 were washed 4 times with 100 ml TTBS and once with 100 ml TBS before fluorescent images were acquired and quantified with the Odyssey Infrared Imaging System (Li-Cor). Integrated band intensity was calculated with the Odyssey system using blank gel areas surrounding each band for background subtraction. […]

primary human TCM cells [2] = assay: TCM cell CD19 expression time-course study; format: cell-based; conditions: 500 μM theophylline, five days; compared to the inactive ribozyme control; three copies of switch
Experimental: (§1) Since short production timeline and streamlined processing may be important in clinical applications, characterization studies of TCM cells were performed on bulk transduced, unsorted populations to examine the robustness of the regulatory system in the scenario in which no population refinement was performed. Transduced cells were cultured in the presence and absence of 500 μM theophylline for five days, with daily monitoring of CD19 levels and cell viability by staining with CD19 antibody, annexin V, and SYTOX AAD dead cell stain. […] TCM cells stably expressing the cd19-t2a-il15-L2bulge9(3×) construct were cultured in the presence and absence of 500 μM theophylline. […] Values reported represent mean±s.d. from triplicate samples.
On day 12 post stimulation, each cell line was used to seed four 25-ml cultures at 0.2×10^6 cells/ml. 500 μM theophylline was added to 2 flasks of each cell line, and no IL-2 or IL-15 was fed to any flask. Two aliquots from each culture were sampled every 24 hours for staining with PE-conjugated CD19 antibody (Beckman Coulter; Fullerton, Calif.). Fluorescence data were obtained with a Quanta Cell Lab Flow Cytometer using a 488-nm laser and a 575/30-nm band-pass filter.

CTLL-2 cells [3] = assay: Transient transfection in CTLL-2 cells, viability and fluorescence by flow cytometry; format: cell-based, mouse
primary human TCM cells [4] = assay: TCM cell apoptosis time-course study (annexin V / SYTOX AAD / CD19 staining); format: cell-based; conditions: 500 μM theophylline, five days, compared to the inactive ribozyme control
Experimental: as §1
On day 12 post stimulation, each cell line was washed twice with HBSS and used to seed six 25-ml cultures at 0.45×10^6 cells/ml. […] Fluorescence data were obtained using a Quanta Cell Lab Flow Cytometer with both a 488-nm laser and an UV arc lamp. Pacific Blue, PE, and SYTOX AAD were detected through 465/30-nm band pass, 575/30-nm band pass, and 610-nm long pass filters, respectively, Only SYTOX AAD-cells were included in data analyses. The population of live CD19+ cells was determined by gating for annexin V−/PE+ cells and the population of apoptotic CD19+ cells was determined by gating for annexin V+/PE+ cells.

CTLL-2 cells [5] = assay: In vitro growth assay for stable CTLL-2 cell lines; format: cell-based, mouse; conditions: 500 μM theophylline, without exogenous IL-2
Experimental: Growth behavior of individual clones was characterized by culturing under various theophylline concentrations. […] In the experiment shown in FIG. 7, the cell lines were cultured at various theophylline concentrations, and cell growth was monitored by counting viable cells. Clones indicated as 1261-xx stably expressed cd19-tk-il15-L2bulge9(1x). Clone 1264-xx stably expressed cd19-tk-il15-L2bulge9(3×). Growth behaviors differ from clone to clone, as would be expected from non-site-specific integration of the transgene into the host chromosomes. Theophylline-responsive increase in cell growth is evident in fifteen of the sixteen tested clones, and the growth elevation is statistically significant for the sample set (P=0.0150, 0.0011, 0.0013 for 100 μM, 250 μM, and 400 μM, respectively, by Whitney-Mann U test).
CffLuc-pIL15 clones were cultured under regular conditions (RPMI 1640 media supplemented with 100 U/ml IL-2 every 48 hours, 0.2 mg/ml zeocin, no theophylline), washed twice with HBSS, and split into 5 identical aliquots in 6-well plates at approximately 0.01×10^6 cells/ml (4 ml/well). […] Cell density was calculated by dividing the number of detected live cells by the volume analyzed on the flow cytometer. […]

T-cell proliferation = assay: In vivo T-cell proliferation study with biophotonic imaging of luciferase signal flux; design: species or system NOD/scid-IL2(ko) mice
Experimental: To verify in vivo functionality of the T-cell proliferation regulatory system, we examined several clonal cell lines for theophylline-dependent growth in mice over time. Select clones were encased in a hydrogel matrix that contained either 0 μM or 500 μM theophylline and injected into the flanks of NOD/SCID-γc^−/− mice. […] Flux measurements over a 9-day period indicate an average of 40% increase in the growth rate of clone 1264-48 in the presence of […] (n1=4, n2=6, P=0.038 by Mann-Whitney U test).
Cells were harvested by centrifugation at 1200 rpm at 4° C. for 10 min, washed twice with PBS, resuspended in PBS at a concentration of 2×10^6 cells/ml, and split into two 50 μl aliquots. […] In vivo growth of the injected cells was monitored by biophotonic imaging. […]
Animals received intraperitoneal (i.p.) injections of 4.29 mg per mouse of freshly prepared luciferin substrate (Caliper Life Sciences; Hopkinton, Mass.) suspended in 150 μl of PBS. […] Luciferase activity was analyzed through Living Image Software 3.1 from Xenogen to quantify tumor region flux (photons per second).
Statistical analysis was performed on growth rate data using the Mann-Whitney U test to calculate two-tailed P values. The doubling time of injected cells was calculated based on the total luciferase signal flux data collected over the course of each in vivo study. […]

CN(C)[C@@H]1C(O)=C(C(N)=O)C(=O)[C@@]2(O)C(O)=C3C(=O)c4c(O)cccc4[C@@](C)(O)[C@H]3C[C@@H]12 [tetracycline]
toxicity to CTLL-2 cells (CTLL-2 cells [1]): some toxicity

Cn1c(=O)c2[nH]cnc2n(C)c1=O [theophylline]
nonspecific activation of JAK-STAT pathway (JAK-STAT pathway): did not nonspecifically activate the JAK-STAT pathway | toxicity to CTLL-2 cells (CTLL-2 cells [1]): some toxicity

B1: L2bulge9: theophylline-responsive ribozyme switch, SEQ ID NO: 28 (nucleic acid)
chain: CTCGAGGCGATCGCAAACAAACAAAGCTGTCACCGGATGTGCTTTCCGGTCTGATGAGTCCGTTGTCCAATACCAGCATCGTCTTGATGCCCTTGGCAGTGGATGGGGACGGAGGACGAAACAGCAAAAAGAAAAATAAAAATTTTTTTTTTAATTAATCTTGGGCCC
modifications: L2bulge9
increase in CD19 expression levels (primary human TCM cells [2]): up to 15% | switch control over cell viability and proliferation (CTLL-2 cells [3]; cd19-tk-t2a-il15 transgene, theophylline): ON switch control over cell viability and proliferation | basal knockdown (viability) (CTLL-2 cells [3]; three and four copies of switch, egfp-t2a-il2, viability comparable to No IL-2 Control and sTRSV Ribozyme): Stringent knockdown | reduction in the apoptotic cell population (primary human TCM cells [4]; apoptotic CD19+): up to 54% | increase in the live cell population (primary human TCM cells [4]; live CD19+): up to 24%

B2: L2bulge18tc: tetracycline-responsive ribozyme switch, SEQ ID NO: 29 (nucleic acid)
chain: CTCGAGGCGATCGCAAACAAACAAAGCTGTCACCGGATGTGCTTTCCGGTCTGATGAGTCCGTTGTCCAAAACATACCAGATTTCGATCTGGAGAGGTGAAGAATTCGACCACCTGGACGAGGACGGAGGACGAAACAGCAAAAAGAAAAATAAAAATTAATTAATCTTGGGCCC
modifications: L2bulge18tc
switch activity (fluorescence) (CTLL-2 cells [3]; tetracycline input, single- and multiple-copy switch systems): tetracycline-responsive ON switch activity

B3: inactive ribozyme: inactive, scrambled hammerhead ribozyme lacking an aptamer, SEQ ID NO: 30; cells expressing it serve as positive control (nucleic acid)
chain: CTCGAGGCGATCGCAAACAAACAAAGCTGTCACCGGATGTGCTTTCCGGTACGTGAGGTCCGTGAGGACAGAACAGCAAAAAGAAAAATAAAAATTTTTTTTTTAATTAATCTTGGGCCC
growth rate in the presence of theophylline (CTLL-2 cells [5]): decreased growth rate | change in in vivo growth rate in response to theophylline addition (T-cell proliferation; 500 μM theophylline vs none, 9-day period): did not show statistically significant changes; also recorded: no statistically significant difference | in vivo T-cell proliferation (T-cell proliferation; regardless of theophylline availability (0 or 500 μM), 14-day study): Uncontrolled T-cell proliferation

From US8329882B2, “Genetic control of mammalian cells with synthetic RNA regulatory systems” (California Institute of Technology, priority 2009, dated 2012)
